Target: Recombinant full-length Pin1, N-terminally His6-tagged (human) (UniProt Q13526)
Test: SDS-PAGE and western blot; fractions eluted from the HisTrapHP column with imidazole, 15% SDS-PAGE, HRP conjugated anti-His antibody; second band seen in the more concentrated fractions

Substance: Recombinant full-length Pin1, N-terminally His6-tagged (from UniProt Q13526 1-163) (enzyme)
- stoichiometry N: 2

Source: paper PMC9935730
